Assay results taken from patent publication US20230064703A1.

Legend:
[1] = target: human GITR expressed on Cho-K1 cells (human) (UniProt Q9Y5U5); test: FACS binding assay with GITR/Cho-K1, humanized antibody
[2] = target: human GITR expressed on Cho-K1 cells (human) (UniProt Q9Y5U5); test: FACS binding assay with GITR/Cho-K1, chimeric antibody
[3] = target: human GITR expressed on Cho-K1 cells (human) (UniProt Q9Y5U5); test: FACS, chimeric antibody on GITR/Cho-K1 cells, geometric mean, 4-parameter fit

Chain of human GITR expressed on Cho-K1 cells (human) (Q9Y5U5 26-241): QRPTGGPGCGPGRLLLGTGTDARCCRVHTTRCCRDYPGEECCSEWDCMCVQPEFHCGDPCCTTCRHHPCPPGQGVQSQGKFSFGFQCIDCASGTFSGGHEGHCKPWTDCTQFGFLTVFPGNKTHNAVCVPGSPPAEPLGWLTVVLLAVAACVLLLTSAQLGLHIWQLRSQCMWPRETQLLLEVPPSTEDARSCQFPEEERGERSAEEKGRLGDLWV

B1: humanized antibody 45F1F3 VH1.3 + VL1.1 (antibody, V domains shown)
VH: QVQLQESGPGLVKPSQTLSLTCTVTGYSITIDYAWNWIRQPPGKGLEWMGYISNSGYTSYNPSLKSRVTISRDTSKNQFFLKLSSVTAADTAVYYCTRSGHYDLFDYWGQGTTVTVSS
VL: DVVMTQSPLSLPVTLGQPASISCKSSQSLFDRDGKTYLSWLLQRPGQSPRRLIYLVSNLDSGVPDRFSGSGSGTDFTLKISRVEAEDVGVYYCWQGTHFPYTFGGGTKVEIK
In the case of B1, the EC50 [1] is reported as 0.106 µg/mL.

B2: humanized antibody 45F1F3 VH1.4 + VL1.1 (antibody, V domains shown)
VH: DVQLQESGPGLVKPSQTLSLTCTVTGYSITIDYAWNWIRQPPGKGLEWMGYISNSGYTSYNPSLKSRITFSRDTSKNQFFLKLSSVTAADTAVYYCTRSGHYDLFDYWGQGTTVTVSS
VL: DVVMTQSPLSLPVTLGQPASISCKSSQSLFDRDGKTYLSWLLQRPGQSPRRLIYLVSNLDSGVPDRFSGSGSGTDFTLKISRVEAEDVGVYYCWQGTHFPYTFGGGTKVEIK
B2 gave an EC50 [1] of 0.0704 µg/mL.

B3: humanized antibody 270C5C10 VH1.4 + VL1 (antibody, V domains shown)
VH: QVQLVQSGAEVKKPGASVKVSCKASGYTFTDNYMNWARQSPGQSLEWIGDINPNNGGSRYKEKFKDRATLTVDTSIRTAYMELSRLRSDDTAVYYCANPGSYGFAYWGQGTLVTVSS
VL: DVVMTQSPLSLPVTLGQPASISCKSSQSLLDSDGRTYLNWFQQRPGQSPRRLIYLVSQLDSGVPDRFSGSGSGTDFTLKISRVEAEDVGVYYCWQGTHFPWTFGGGTKLEIK
With B3 the EC50 [1] was 0.0558 µg/mL.

B4: chimeric antibody 45F1F3 (human IgG1) (antibody, V domains shown)
VH: DVQLQESGPGLVKPSQSLSLTCTVTGYSITIDYAWNWIRQFPGNKLEWMGYISNSGYTSYNPSLKSRISFTRDTSKNQFFLQLNSVTPEDSATYYCTRSGHYDLFDYWGQGTTLTVSS
VL: DVVMTQAPLTLSVTIGQPASISCKSSQSLFDRDGKTYLSWLLERPGQSPKRLIYLVSNLDSGVPDRFTGSGSGTDFTLKISRVEAEDLGVYYCWQGTHFPYTFGGGTKVEMKR
Work on B4 yielded an EC50 [2] of 0.111 µg/mL and an EC50 [3] of 0.0443 µg/mL.

B5: humanized antibody 225H7D12 VH1.1 + VL1.2 (antibody, V domains shown)
VH: QVQLVQSGAEVKKPGASVKVSCKTTGYRFTGYWIEWVRQAPGQGLEWIGEILPGSGVSNNNEKFRDRATMTADTSISTAYMELSRLRSDDTAVYYCARKASYYTMDYWGQGTLVTVSS
VL: DIQMTQSPSSLSASVGDRVTITCTASSSVSSFYFHWYQQKPGKAPKLWIYSISNLASGVPSRFSGSGSGTSYTLTISSLQPEDFATYYCHQYHRSPRTFGGGTKLEIK
B5 was tested, and the EC50 [1] was 0.0755 µg/mL.

B6: humanized antibody 225H7D12 VH1.3 + VL1.2 (antibody, V domains shown)
VH: QVQLVQSGAEVKKPGASVKVSCKASGYRFTGYWIEWVKQAPGQGLEWIGEILPGSGVSNNNEKFRDRATMTADTSINTAYMELSRLRSDDTAVYYCARKASYYTMDYWGQGTLVTVSS
VL: DIQMTQSPSSLSASVGDRVTITCTASSSVSSFYFHWYQQKPGKAPKLWIYSISNLASGVPSRFSGSGSGTSYTLTISSLQPEDFATYYCHQYHRSPRTFGGGTKLEIK
For B6, the EC50 [1] was 0.082 µg/mL.

B7: humanized antibody 225H7D12 VH1.4 + VL1.2 (antibody, V domains shown)
VH: QVQLVQSGAEVKKPGASVKVSCKTTGYRFTGYWIEWVKQAPGQGLEWIGEILPGSGVSNNNEKFRDRATFTADTSINTAYMELSRLRSDDTAVYYCARKASYYTMDYWGQGTLVTVSS
VL: DIQMTQSPSSLSASVGDRVTITCTASSSVSSFYFHWYQQKPGKAPKLWIYSISNLASGVPSRFSGSGSGTSYTLTISSLQPEDFATYYCHQYHRSPRTFGGGTKLEIK
Work on B7 yielded an EC50 [1] of 0.181 µg/mL.

B8: chimeric antibody 225H7D12 (human IgG1) (antibody, V domains shown)
VH: QVQLQQSGAEVMKPGASVKLSCKTTGYRFTGYWIEWVKQRPGHGLEWIGEILPGSGVSNNNEKFRDKATFTADTSSNTAYIQLSSLTTDDSAIYYCARKASYYTMDYWGQGTSVTVSS
VL: QIVLTQSPAIMSASLGERVTMTCTASSSVSSFYFHWYQQKPGSSPKLWIYSISNLASGVPTRFSGSGSGTSYSLTISSMEAEDAATYYCHQYHRSPRTFGGGTKLEIKR
B8 showed an EC50 [2] of 0.112 µg/mL and an EC50 [3] of 0.0566 µg/mL.
